Measured values taken from patent US20220152154A1, “GROWTH DIFFERENTIATION FACTOR 15 COMBINATION THERAPY” (Amgen Inc., priority 2019, published 2022).

How the values were obtained:
[1] = Food intake measured three consecutive days per week; type: in vivo; set-up: key: ns: not significant; *: p < 0.05; **: p < 0.005; ***: p < 0.001; ****: p < 0.0001; conditions: male C57Bl/6 DIO mice, 2-way ANOVA with Dunnett's analysis
Experimental: (§1) Male C57Bl/6 DIO mice, 19-20 weeks old (13-14 weeks on high fat diet) at beginning of dosing, were placed into the following treatment groups: Group A—Vehicle, in which the animals were administered vehicle weekly; Group B—Dulaglutide, in which the animals were administered 0.1 mg/kg (2 nmol/kg) of dulaglutide twice per week; Group C—GIPR Ab, in which the animals were administered 5 mg/kg (33 nmol/kg) of antibody 2.63.1 (having a light and heavy chain sequence of SEQ ID NOs: 105 and 106, respectively) weekly and vehicle weekly (the latter being on the alternate dulaglutide dosing day); Group D—GDF15, in which the animals were administered 0.125 mg/kg (1 nmol/kg) of FcΔ10(−)-(G4S)4-GDF15 (SEQ ID NO: 39) (along with its heterodimerization partner, FcΔ10(+,K) (SEQ ID NO: 32)) weekly and vehicle weekly (the latter on the alternate dulaglutide dosing day); Group E—GDF15+Dulaglutide, in which the animals were administered 0.125 mg/kg (1 nmol/kg) of FcΔ10(−)-(G4S)4-GDF15) (along with its heterodimerization partner, FcΔ10(+,K)) weekly and 0.1 mg/kg (2 nmol/kg) of dulaglutide twice per week; Group F—GDF15+GIPR Ab, in which the animals were administered 0.125 mg/kg (1 nmol/kg) of FcΔ10(−)-(G4S)4-GDF15 (along with its heterodimerization partner, FcΔ10(+,K)) weekly and 5 mg/kg (33 nmol/kg) of antibody 2.63.1 weekly. The animals were dosed for 5 weeks with through subcutaneous injection.

[2] = Body weight change in DIO mice treated for 5 weeks; type: in vivo; set-up: key to Significance of Body Weight Change: ns: not significant; *: p < 0.05; **: p < 0.005; ***: p < 0.001; ****: p < 0.0001; conditions: subcutaneous; for Significance of Body Weight Change: male C57Bl/6 DIO mice, 2-way ANOVA with Dunnett's analysis; for change in body weight: DIO mice
Experimental: as §1
Body weight was measured twice per week.

B1: GIPR Ab: GIPR antibody 2.63.1 having a light and heavy chain sequence of SEQ ID NOs: 105 and 106 (antibody)
heavy: MGWSYIILFLVATATDVHSQVQLQQPGAELVKPGASVKLSCRASGYTFTSNWMHWVKQRPRQGLEWIGEINPSNGRSNYNEKFKTKATLTVDKSSSTAYMQLSSLTSEDSAVYYCARFYYGTSWFAYWGQGTLVAVSAAKTTPPSVYPLAPGSAAQTNSMVTLGCLVKGYFPEPVTVTWNSGSLSSGVHTFPAVLQSDLYTLSSSVTVPSSTWPSETVTCNVAHPASSTKVDKKIVPRDCGCKPCICTVPEVSSVFIFPPKPKDVLTITLTPKVTCVVVDISKDDPEVQFSWFVDDVEVHTAQTQPREEQFASTFRSVSELPIMHQDWLNGKEFKCRVNSAAFPAPIEKTISKTKGRPKAPQVYTIPPPKEQMAKDKVSLTCMITDFFPEDITVEWQWNGQPAENYKNTQPIMDTDGSYFVYSKLNVQKSNWEAGNTFTCSVLHEGLHNHHTEKSLSHSPGK
light: MKLPVRLLVLMFWIPASSSDVVMTQTPLSLPVSLGDQASISCRSSQSLVHSNGDTYLHWYLQKPGQSPKLLIYKVSNRFSGVPDRFSGSGSGTDFTLKISRVEAADLGVYFCSQSTHVPPFTFGGGTKLEIKRADAAPTVSIFPPSSEQLTSGGASVVCFLNNFYPKDINVKWKIDGSERQNGVLNSWTDQDSKDSTYSMSSTLTLTKDEYERHNSYTCEATHKTSTSPIVKSFNRNEC
Significance of Food Intake Assay ([1]; D2): ns | Significance of Food Intake Assay ([1]; D8): ns | Significance of Food Intake Assay ([1]; D9): ns | Significance of Food Intake Assay ([1]; D10): ns | Significance of Food Intake Assay ([1]; D15): ns | Significance of Food Intake Assay ([1]; D16): ns | Significance of Food Intake Assay ([1]; D17): ns | Significance of Food Intake Assay ([1]; D22): * (p < 0.05) | Significance of Food Intake Assay ([1]; D23): ns | Significance of Food Intake Assay ([1]; D24): ns | Significance of Food Intake Assay ([1]; D29): ns | Significance of Food Intake Assay ([1]; D30): ns | Significance of Food Intake Assay ([1]; D31): ns | Significance of Body Weight Change ([2]; D0): ns | Significance of Body Weight Change ([2]; D3): ns | Significance of Body Weight Change ([2]; D7): ns | Significance of Body Weight Change ([2]; D10): ns | Significance of Body Weight Change ([2]; D14): ns | Significance of Body Weight Change ([2]; D17): ns | Significance of Body Weight Change ([2]; D21): ns | Significance of Body Weight Change ([2]; D31): ns | Significance of Body Weight Change ([2]; D35): ns | Significance of Body Weight Change ([2]; D-4): ns | change in body weight ([2]; five weeks after treatment): 2.24% | change in body weight ([2]; two weeks after treatment): −0.91%
